The values that follow come from paper PMC2173747 (The Journal of Cell Biology, 2003).

The target in this test is purified human gelsolin (human, UniProt P06396 28-782). The test can be described thus: ELISA. Background: ELISA stands for enzyme-linked immunosorbent assay.
Chain of purified human gelsolin (P06396 28-782): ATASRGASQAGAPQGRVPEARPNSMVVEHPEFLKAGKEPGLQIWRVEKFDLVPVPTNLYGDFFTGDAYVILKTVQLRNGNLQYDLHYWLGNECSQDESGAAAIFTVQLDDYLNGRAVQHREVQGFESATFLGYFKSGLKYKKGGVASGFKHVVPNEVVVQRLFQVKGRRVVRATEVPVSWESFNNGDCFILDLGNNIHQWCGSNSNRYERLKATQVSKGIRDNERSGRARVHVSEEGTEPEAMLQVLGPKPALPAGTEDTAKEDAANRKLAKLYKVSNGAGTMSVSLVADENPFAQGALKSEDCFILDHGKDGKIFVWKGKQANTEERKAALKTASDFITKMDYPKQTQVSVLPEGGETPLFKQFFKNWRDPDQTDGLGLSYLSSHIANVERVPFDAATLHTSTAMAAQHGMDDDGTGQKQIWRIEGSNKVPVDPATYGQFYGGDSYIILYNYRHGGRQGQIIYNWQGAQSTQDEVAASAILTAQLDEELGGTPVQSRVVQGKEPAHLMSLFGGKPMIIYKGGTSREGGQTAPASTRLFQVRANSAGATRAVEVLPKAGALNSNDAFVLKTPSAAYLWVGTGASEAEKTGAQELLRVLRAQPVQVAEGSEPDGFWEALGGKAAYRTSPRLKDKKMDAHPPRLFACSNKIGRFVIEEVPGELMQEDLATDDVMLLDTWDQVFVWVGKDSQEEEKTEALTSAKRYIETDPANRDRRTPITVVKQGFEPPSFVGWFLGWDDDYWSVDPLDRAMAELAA

B1: GST-PYK2Δ1–781 (domain or fragment)
chain: EEDFIQPSSREEAQQLWEAEKVKMRQILDKQQKQMVEDYQWLRQEEKSLDPMVYMNDKSPLTPEKEVGYLEFTGPPQKPPRLGAQSIQPTANLDRTDDLVYLNVMELVRAVLELKNELCQLPPEGYVVVVKNVGLTLRKLIGSVDDLLPSLPSSSRTEIEGTQKLLNKDLAELINKMRLAQQNAVTSLSEECKRQMLTASHTLAVDAKNLLDAVDQAKVLANLAHPPAE
As usually defined, the EC50 is the concentration at which the effect is half-maximal. B1: the EC50 was 0.03 ± 0.004 µM.
